Measured values as given in paper PMC3791462, “Role of the C-terminal domain in the structure and function of tetrameric sodium channels” (Nature Communications, 2013).

Target: the molecule itself
Assay: SEC; Superdex 200 10/300 GL, buffer A (10 mM Tris-HCl pH 7.5, 100 mM NaCl, 0.52% HEGA-10); detergent-solubilised protein

B1: NavMs-pore+CTD (wild-type pore with full-length C-terminal domain of the NavMs sodium channel from Magnetococcus marinus MC-1) (domain or fragment, UniProt A0L5S6 130-274, looked up)
chain: GVGSVAALLTVVFYIAAVMATNLYGATFPEWFGDLSKSLYTLFQVMTLESWSMGIVRPVMNVHPNAWVFFIPFIMLTTFTVLNLFIGIIVDAMAITKEQEEEAKTGHHQEPISQTLLHLGDRLDRIEKQLAQNNELLQRQQPQKK
notes: Plasmid pET15b; also called unlabelled wild-type construct; wild-type pore+CTD protein; source: E. coli C41(DE3), purified (HisTrap HP, thrombin, second HisTrap HP, size exclusion) in HEGA-10
  stoichiometry N: 4

B2: NavMs-pore+CTD R268C, PROXYL spin-labelled (domain or fragment, Magnetococcus marinus MC-1, UniProt A0L5S6 130-274, looked up)
chain: GVGSVAALLTVVFYIAAVMATNLYGATFPEWFGDLSKSLYTLFQVMTLESWSMGIVRPVMNVHPNAWVFFIPFIMLTTFTVLNLFIGIIVDAMAITKEQEEEAKTGHHQEPISQTLLHLGDRLDRIEKQLAQNNELLQCQQPQKK
modifications: 3-(2-iodoacetamido)-PROXYL nitroxide spin label on cysteine 268
notes: source: E. coli C41(DE3), purified (HisTrap HP, thrombin, size exclusion), spin-labelled
  stoichiometry N: 4

B3: NavMs-pore+CTD A221C/D250C double mutant, PROXYL spin-labelled (domain or fragment, Magnetococcus marinus MC-1, UniProt A0L5S6 130-274, looked up)
chain: GVGSVAALLTVVFYIAAVMATNLYGATFPEWFGDLSKSLYTLFQVMTLESWSMGIVRPVMNVHPNAWVFFIPFIMLTTFTVLNLFIGIIVDCMAITKEQEEEAKTGHHQEPISQTLLHLGCRLDRIEKQLAQNNELLQRQQPQKK
modifications: 3-(2-iodoacetamido)-PROXYL nitroxide spin labels on cysteines 221 and 250
notes: as for B2
  stoichiometry N: 4

B4: NavMs-pore+CTD I241C, PROXYL spin-labelled (domain or fragment, Magnetococcus marinus MC-1, UniProt A0L5S6 130-274, looked up)
chain: GVGSVAALLTVVFYIAAVMATNLYGATFPEWFGDLSKSLYTLFQVMTLESWSMGIVRPVMNVHPNAWVFFIPFIMLTTFTVLNLFIGIIVDAMAITKEQEEEAKTGHHQEPCSQTLLHLGDRLDRIEKQLAQNNELLQRQQPQKK
modifications: 3-(2-iodoacetamido)-PROXYL nitroxide spin label on cysteine 241
notes: as for B2
  stoichiometry N: 4

B5: NavMs-pore+CTD D250C, PROXYL spin-labelled (domain or fragment, Magnetococcus marinus MC-1, UniProt A0L5S6 130-274, looked up)
chain: GVGSVAALLTVVFYIAAVMATNLYGATFPEWFGDLSKSLYTLFQVMTLESWSMGIVRPVMNVHPNAWVFFIPFIMLTTFTVLNLFIGIIVDAMAITKEQEEEAKTGHHQEPISQTLLHLGCRLDRIEKQLAQNNELLQRQQPQKK
modifications: 3-(2-iodoacetamido)-PROXYL nitroxide spin label on cysteine 250
notes: as for B2
  stoichiometry N: 4

B6: NavMs-pore+CTD K273C, PROXYL spin-labelled (domain or fragment, Magnetococcus marinus MC-1, UniProt A0L5S6 130-274, looked up)
chain: GVGSVAALLTVVFYIAAVMATNLYGATFPEWFGDLSKSLYTLFQVMTLESWSMGIVRPVMNVHPNAWVFFIPFIMLTTFTVLNLFIGIIVDAMAITKEQEEEAKTGHHQEPISQTLLHLGDRLDRIEKQLAQNNELLQRQQPQCK
modifications: 3-(2-iodoacetamido)-PROXYL nitroxide spin label on cysteine 273
notes: as for B2
  stoichiometry N: 4

B7: NavMs-pore+CTD A232C, PROXYL spin-labelled (domain or fragment, Magnetococcus marinus MC-1, UniProt A0L5S6 130-274, looked up)
chain: GVGSVAALLTVVFYIAAVMATNLYGATFPEWFGDLSKSLYTLFQVMTLESWSMGIVRPVMNVHPNAWVFFIPFIMLTTFTVLNLFIGIIVDAMAITKEQEEECKTGHHQEPISQTLLHLGDRLDRIEKQLAQNNELLQRQQPQKK
modifications: 3-(2-iodoacetamido)-PROXYL nitroxide spin label on cysteine 232
notes: as for B2
  stoichiometry N: 4

B8: NavMs-pore+CTD A260C, PROXYL spin-labelled (domain or fragment, Magnetococcus marinus MC-1, UniProt A0L5S6 130-274, looked up)
chain: GVGSVAALLTVVFYIAAVMATNLYGATFPEWFGDLSKSLYTLFQVMTLESWSMGIVRPVMNVHPNAWVFFIPFIMLTTFTVLNLFIGIIVDAMAITKEQEEEAKTGHHQEPISQTLLHLGDRLDRIEKQLCQNNELLQRQQPQKK
modifications: 3-(2-iodoacetamido)-PROXYL nitroxide spin label on cysteine 260
notes: as for B2
  stoichiometry N: 4

B9: NavMs-pore+CTD A223C, PROXYL spin-labelled (domain or fragment, Magnetococcus marinus MC-1, UniProt A0L5S6 130-274, looked up)
chain: GVGSVAALLTVVFYIAAVMATNLYGATFPEWFGDLSKSLYTLFQVMTLESWSMGIVRPVMNVHPNAWVFFIPFIMLTTFTVLNLFIGIIVDAMCITKEQEEEAKTGHHQEPISQTLLHLGDRLDRIEKQLAQNNELLQRQQPQKK
modifications: 3-(2-iodoacetamido)-PROXYL nitroxide spin label on cysteine 223
notes: as for B2
  stoichiometry N: 4

B10: NavMs-pore+CTD A221C, PROXYL spin-labelled (domain or fragment, Magnetococcus marinus MC-1, UniProt A0L5S6 130-274, looked up)
chain: GVGSVAALLTVVFYIAAVMATNLYGATFPEWFGDLSKSLYTLFQVMTLESWSMGIVRPVMNVHPNAWVFFIPFIMLTTFTVLNLFIGIIVDCMAITKEQEEEAKTGHHQEPISQTLLHLGDRLDRIEKQLAQNNELLQRQQPQKK
modifications: 3-(2-iodoacetamido)-PROXYL nitroxide spin label on cysteine 221
notes: as for B2
  stoichiometry N: 4
